Reference: patent publication US5547843

Test system: E. coli single-stranded DNA-binding protein (SSB) (Escherichia coli)
Details: saturating ratio inferred from priming titration (mass ratio SSB:DNA about 2.5); 40 mM Tris-Cl pH 7.5, 50 mM NaCl, 10 mM MgCl2, 0 C; indirect functional …

## M13 single-stranded viral DNA
  binding (nt per SSB monomer): 22
